Source: patent publication EP1137786B1 (UNIVERSITY OF MARYLAND BIOTECHNOLOGY INSTITUTE, dated 2007)

Molecular target: full-length single chain (FLSC) gp120-CD4 chimeric polypeptide (HIV-1 BaL; human)
Test: flow cytometry on L1.2/X4 cells

B1: CXCR4 (receptor)
chain: MEGISIYTSDNYTEEMGSGDYDSMKEPCFREENANFNKIFLPTIYSIIFLTGIVGNGLVILVMGYQKKLRSMTDKYRLHLSVADLLFVITLPFWAVDAVANWYFGNFLCKAVHVIYTVNLYSSVLILAFISLDRYLAIVHATNSQRPRKLLAEKVVYVGVWIPALLLTIPDFIFANVSEADDRYICDRFYPNDLWVVVFQFQHIMVGLILPGIVILSCYCIIISKLSHSKGHQKRKALKTTVILILAFFACWLPYYIGISIDSFILLEIIKQGCEFENTVHKWISITEALAFFHCCLNPILYAFLGAKFKTSAQHALTSVSRGSSLKILSKGKRGGHSSVSTESESSSFHSS
notes: whole, on cells; also called X4; L1.2/X4 cells
B1: no binding.
